Patent publication US20120014998A1

Target: GroEL (E. coli Cpn60) (E. coli) (UniProt P0A6F5)
Assay: cell-based or functional assay

Chain of GroEL (E. coli Cpn60) (E. coli) (P0A6F5 2-548 limits assumed): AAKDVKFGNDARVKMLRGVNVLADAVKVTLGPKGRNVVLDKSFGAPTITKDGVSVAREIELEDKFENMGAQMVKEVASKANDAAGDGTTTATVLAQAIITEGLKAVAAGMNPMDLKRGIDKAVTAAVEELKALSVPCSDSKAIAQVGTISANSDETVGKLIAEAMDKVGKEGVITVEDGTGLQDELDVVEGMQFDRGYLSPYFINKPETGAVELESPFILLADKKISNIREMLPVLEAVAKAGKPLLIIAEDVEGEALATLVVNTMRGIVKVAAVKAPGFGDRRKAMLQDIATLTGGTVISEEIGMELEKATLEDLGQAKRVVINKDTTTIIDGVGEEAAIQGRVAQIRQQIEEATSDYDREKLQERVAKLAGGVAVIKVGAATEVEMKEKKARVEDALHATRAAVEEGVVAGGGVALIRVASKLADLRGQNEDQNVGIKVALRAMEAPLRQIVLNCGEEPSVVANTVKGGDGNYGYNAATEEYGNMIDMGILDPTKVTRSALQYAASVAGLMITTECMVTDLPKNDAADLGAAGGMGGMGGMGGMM

B1: E. coli Cpn10 (GroES) (protein)
chain: MNIRPLHDRVIVKRKEVETKSAGGIVLTGSAAAKSTRGEVLAVGNGRILENGEVKPLDVKVGDIVIFNDGYGVKSEKIDNEEVLIMSESDILAIVEA
For B1, the Refolding activity (% of Ala-Cpn10) (% of Ala-Cpn10) was 109.
